Reference: patent publication US20260266833A1

How the values were obtained:
H3K9me3 peptide = experiment: fluorescence polarization, FITC-peptide 0.5 nM
[1] = biological target: H3K27me3-marked histone H3 in chromatin of mouse embryonic stem cells (mouse); experiment: ChIP-seq of the EGFP control in mESCs, correlation with antibody ChIP-seq of the mark, 1-kb bins on chromosome 19
[2] = biological target: H3K9me3-marked histone H3 in chromatin of mouse embryonic stem cells (mouse); experiment: as above
H3K4me3 (mouse) [3] = experiment: as above
[4] = biological target: H3K27me3-marked histone H3 in chromatin of mouse embryonic stem cells (mouse); experiment: ChIP-seq of the EGFP control in mESCs, correlation with antibody ChIP-seq of the mark, counts at 1-kb intervals
[5] = biological target: H3K9me3-marked histone H3 in chromatin of mouse embryonic stem cells (mouse); experiment: as above
H3K4me3 (mouse) [6] = experiment: as above

Chain of Cbx3.wt chromodomain (tags removed), Q13185 23-81 (Q13185 23-81 limits assumed): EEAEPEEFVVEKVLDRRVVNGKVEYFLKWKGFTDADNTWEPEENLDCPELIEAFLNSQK
Chain of Cbx1.wt chromodomain (tags removed), P83916 17-79 (P83916 17-79 limits assumed): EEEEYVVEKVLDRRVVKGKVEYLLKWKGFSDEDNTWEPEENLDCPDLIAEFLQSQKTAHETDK
Chain of Cbx5.wt chromodomain (tags removed), P45973 17-78 (P45973 17-78 limits assumed): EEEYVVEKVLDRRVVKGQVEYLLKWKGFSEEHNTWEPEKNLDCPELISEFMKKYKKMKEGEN

## Cbx1.wt chromodomain (tags removed), P83916 17-79
H3K9me3 peptide
  Kd: 500 nM

## Cbx3.wt chromodomain (tags removed), Q13185 23-81
H3K9me3 peptide
  Kd: 2000 nM

## Cbx5.wt chromodomain (tags removed), P45973 17-78
H3K9me3 peptide
  Kd: 5000 nM

## EGFP
[1]
  Pearson correlation: -0.1
[2]
  Pearson correlation: -0.3
H3K4me3 (mouse) [3]
  Pearson correlation: 0.2
[4]
  Pearson correlation: 0.2
[5]
  Pearson correlation: 0.32
H3K4me3 (mouse) [6]
  Pearson correlation: 0.14
